Measurements from paper PMC6850173 (Molecular Microbiology, 2019).

Tests used:
[1] = substrate: Cc1cc2nc3c(=O)[nH]c(=O)nc-3n(C[C@H](O)[C@H](O)[C@H](O)COP(=O)(O)OP(=O)(O)OC[C@H]3O[C@@H](n4cnc5c(N)ncnc54)[C@H](O)[C@@H]3O)c2cc1C; test: HPLC of MTA-CoA formation, initial rates, nonlinear fit; format: biochemical, Roseovarius nubinhibens; conditions: MMPA-CoA as substrate, pH 9.0, 40°C, varied: cofactor
[2] = substrate: CSCCC(=O)SCCNC(=O)CCNC(=O)[C@H](O)C(C)(C)COP(=O)(O)OP(=O)(O)OC[C@H]1O[C@@H](n2cnc3c(N)ncnc32)[C@H](O)[C@@H]1OP(=O)(O)O; test: as above; format: biochemical, Roseovarius nubinhibens; conditions: FAD, pH 9.0, 40°C
crystal structure = biological target: the molecule itself; test: crystal structure

B1: DmdC (ISM) (Roseovarius nubinhibens ISM; T170A) (protein)
chain: MTRYTAPTQDIQYLLHDVLDVANDPTPGYAELEPDFTSAVLEEAGKIAGEVLHPLNAVGDQEGCVLENGVVRPPKGFKEAFDQVREGGWTALDLPEQYGGQNMPYLLGTAVGEMFSGANQAFTMYQGLTHGAASAILVHGTDQQKDTYLPKMFSCDWTGTMNLTEPHCGADLGLMRSKAVPQDDGSYAISGQKIFISAGEHDMAENIIHLVLAKIPGGPEGIKGVSLFIVPKFLVKEDGSLGERNGVKCSKIEEKMGIHGNSTCVMDYDGAKGWLLGEEHKGMRAMFTMMNEARIGVGMQGLAQAEVAYQNALDYARDRLQGRSVTGVENPDGPADPLIVHPDIRRNLLDQKSFIEGARAFLLWGAQMIDRAERGKDEAAHGMVSLLTPVIKGFLTDEGYDMTVQAQQVYGGHGYIEETGMSQFTRDARIAMIYEGANGVQALDLVGRKLAQDGGKHVMAFFDLVKGFIKEAGTDGAMAEFTEPLKSASKDLQSAGMFFMQNGMKNPNAALAGSYDFMHLFGHVCLGLMWGRMAEASLKALAEGRGDANFHETKLATARFYMTRRLPATKLHLARIESGADPVMALDADRF
- Km [1]: 0.1125 ± 0.0045 mM

B2: DmdC (ISM) (Roseovarius nubinhibens ISM; R284A) (protein)
chain: MTRYTAPTQDIQYLLHDVLDVANDPTPGYAELEPDFTSAVLEEAGKIAGEVLHPLNAVGDQEGCVLENGVVRPPKGFKEAFDQVREGGWTALDLPEQYGGQNMPYLLGTAVGEMFSGANQAFTMYQGLTHGAASAILVHGTDQQKDTYLPKMFSCDWTGTMNLTEPHCGTDLGLMRSKAVPQDDGSYAISGQKIFISAGEHDMAENIIHLVLAKIPGGPEGIKGVSLFIVPKFLVKEDGSLGERNGVKCSKIEEKMGIHGNSTCVMDYDGAKGWLLGEEHKGMAAMFTMMNEARIGVGMQGLAQAEVAYQNALDYARDRLQGRSVTGVENPDGPADPLIVHPDIRRNLLDQKSFIEGARAFLLWGAQMIDRAERGKDEAAHGMVSLLTPVIKGFLTDEGYDMTVQAQQVYGGHGYIEETGMSQFTRDARIAMIYEGANGVQALDLVGRKLAQDGGKHVMAFFDLVKGFIKEAGTDGAMAEFTEPLKSASKDLQSAGMFFMQNGMKNPNAALAGSYDFMHLFGHVCLGLMWGRMAEASLKALAEGRGDANFHETKLATARFYMTRRLPATKLHLARIESGADPVMALDADRF
- Km [2]: 12.4 ± 1.0 mM

B3: DmdB Lys523Ala mutant (Ruegeria lacuscaerulensis ITI_1157) (enzyme, UniProt P0DX84 1-539, looked up)
chain: MLGQMMTQPLLISSLIDHAARYHGQTEIVSVETDGTVTRTNWGEIAANARRMGSALTKLGLQPQDRIGTLAWNNRRHLEIYYAASGAGFVCHTINPRLFPEQLVYIINHAQDRVLFFDATFLPLVAAIRDQLTEVKHFVLMGPRNEDALQQIPGLEFYDELIETGDTDFEWPVFDENTASSLCYTSGTTGHPKGVLYSHRSTVLHSFASNTRDVIGYSAMDVVMPVVPMFHVNAWGSPYGCAMSGAQMVLPGPDLHGEALVNLIDTYGVTLAMGVPTIWQGLLAHAAKCGTKLESLERTVIGGAACPPSMIATFREKYGVDTVHAWGMSEMSPLGTANIPLAKHRKLPIEEQHKLRENQGRPPFGVELKIVDDDGNDLPHDGVTQGDLMVRGHWVLDSYFQLKDQELLQDGWFATGDVATLDPDGYMTIRDRSKDIIKSGGEWISSVELENIAVAHPKLATAAVIGVPHPKWDERPLLVAVKAEGEDPSEAELLEFFDGKIAKWQVPDKVVFVDALPLNATGAVLKRKLRDEFKDALTG
- binding result (crystal structure): binds
